{"source": "paper PMC12702239", "about": "“The regulatory mechanisms of SARS-CoV-2 N protein helicase and its annealing activity”", "key": {"[1]": {"biological_target": "CoV-2 Nsp13 helicase (SARS-CoV-2, UniProt P0DTD1 5325-5925)", "experiment": "fluorescence anisotropy; 10-42 C; no significant change", "details": "protein: recombinant; tags: N-terminal SUMO tag removed with SUMO protease; label: 3'-6-FAM on strand 1; 5' overhang 22 nt, 21 bp"}, "[2]": {"biological_target": "CoV-2 N (nucleocapsid) (SARS-CoV-2, UniProt P0DTC9 1-419)", "experiment": "fluorescence anisotropy; 50 mM NaCl, no Mg2+, no ATP; FP: 25 mM Tris-HCl pH 7.6, 50 mM NaCl, no Mg2+, 5 nM labelled nucleic acid, 5 min; temperature not stated; Kd from Hill fits (values not in the text)", "details": "protein: recombinant; tags: His6; chain copies: 2; label: 3'-6-FAM on strand 1; 5' overhang 22 nt, 21 bp"}}}
{"binder": "5'D/D-OhS22D21 (dsDNA) DNA 1: CTGTAGGAATGTGAAATAAAAACGATGTTTTATTTACATTGTA DNA 2: TACAATGTAAATAAAACATCG", "values": [{"measurement": "binding result", "setting": "[1]", "result": "binds"}, {"measurement": "binding result", "setting": "[2]", "result": "binds"}]}
